{"source": "paper PMC7690626", "about": "(2020)", "binders": {"B1": {"name": "CXCR4 receptor on human Toledo diffuse large B-cell lymphoma cells (receptor)", "chain": "MEGISIYTSDNYTEEMGSGDYDSMKEPCFREENANFNKIFLPTIYSIIFLTGIVGNGLVILVMGYQKKLRSMTDKYRLHLSVADLLFVITLPFWAVDAVANWYFGNFLCKAVHVIYTVNLYSSVLILAFISLDRYLAIVHATNSQRPRKLLAEKVVYVGVWIPALLLTIPDFIFANVSEADDRYICDRFYPNDLWVVVFQFQHIMVGLILPGIVILSCYCIIISKLSHSKGHQKRKALKTTVILILAFFACWLPYYIGISIDSFILLEIIKQGCEFENTVHKWISITEALAFFHCCLNPILYAFLGAKFKTSAQHALTSVSRGSSLKILSKGKRGGHSSVSTESESSSFHSS"}}, "experiment_in_all_cases": "FACS; CXCR4+ Toledo cells", "key": {"[1]": {"target": "T22-GFP-H6-ATTO nanoconjugate (T22-GFP-H6 labeled with ATTO488) (horseshoe crab | , UniProt P14216, ATTO488 covalently bound through exposed external lysines (NHS-ester to amine); Poisson dye load distribution, positions not given)"}, "[2]": {"target": "T22-GFP-H6-S-Cy5 nanoconjugate (T22-GFP-H6 labeled with Sulfo-Cyanine5) (horseshoe crab | , UniProt P14216, Sulfo-Cyanine 5 covalently bound through exposed external lysines (NHS-ester to amine); Poisson dye load distribution, positions not given)"}, "[3]": {"target": "T22-GFP-H6 protein nanoparticle (unlabeled) (horseshoe crab | , UniProt P14216)"}}, "data": [{"binder": "B1", "values": [{"measurement": "Kd", "setting": "[1]", "result": 250, "unit": "nM"}, {"measurement": "Kd", "setting": "[2]", "result": 540, "unit": "nM"}, {"measurement": "Kd", "setting": "[3]", "result": 140, "unit": "nM"}]}]}
